Data reported in patent US20240294622A1 (SUZHOU TRANSCENTA THERAPEUTICS, published 2024).

T1: HGREM1-His (ACRO) (human, UniProt O60565 25-184)
T1 construct: Lys25-Asp184 of NP_037504 with C-terminal polyhistidine tag (ACRO GR1-H52H3); they are put here; also called hGREM1 (ACRO); human gremlin (ACRO)
T1 sequence: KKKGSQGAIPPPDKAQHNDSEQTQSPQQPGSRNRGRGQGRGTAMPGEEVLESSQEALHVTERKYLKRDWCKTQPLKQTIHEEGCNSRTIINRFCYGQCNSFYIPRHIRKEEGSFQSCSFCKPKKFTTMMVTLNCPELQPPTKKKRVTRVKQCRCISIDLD

T2: Mouse Gremlin-His (R&D) (mouse, UniProt O70326 25-184)
T2 construct: Lys25-Asp184 with 10xHis, R&D 956-GR; also called mouse gremlin (R&D); mGREM1
T2 sequence: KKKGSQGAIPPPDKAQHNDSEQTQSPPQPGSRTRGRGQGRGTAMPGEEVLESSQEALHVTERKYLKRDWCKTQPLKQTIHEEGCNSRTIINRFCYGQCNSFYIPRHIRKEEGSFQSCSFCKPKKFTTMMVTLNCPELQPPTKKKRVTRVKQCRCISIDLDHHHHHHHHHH


Assays:
HGREM1-His (ACRO) [1] = target: T1, HGREM1-His (ACRO); assay: blocking ELISA, Human Gremlin-1 binding to BMP2; column OD450
Procedure: (§1) In addition, the ability of serial dilutions of antibodies provided herein to block Gremlin binding to human BMP2/4/7 was also examined via ELISA. Plates were coated with recombinant human BMP2/4/7 (0.5 μg/ml) overnight and then serial dilutions of antibodies were incubated with 1 μg/ml of human Gremlin-his modified for 1 h at RT before this complex was added to coated plates and allowed to incubate for an additional hour at RT. The plates were then washed and added with anti-his HRP (GenScript). Plates were then developed with a TMB solution and stopped by adding stop solution. The plates were read on a plate reader at 450 nm. […] The chimeric anti-gremlin 1 antibodies (69H5-chi) and chimeric anti-gremlin 1 antibodies (22F1-chi) also can inhibit the binding of gremlin to BMP2 and BMP4 (see, FIG. 3E and FIG. 3F). The chimeric anti-gremlin 1 antibodies (56C11-chi) can inhibit the binding of gremlin to BMP2 (see, FIG. 3E).

HGREM1-His (ACRO) [2] = target: T1, HGREM1-His (ACRO); assay: blocking ELISA, Human Gremlin-1 binding to BMP2; column Percentage
Procedure: as §1

Mouse Gremlin-His (R&D) = target: T2, Mouse Gremlin-His (R&D); assay: ELISA on coated Mouse Gremlin-his, anti-mouse IgG-HRP
Procedure: Clear polystyrene plates (BEAVER) were coated with 100 μl/well of a […] hGREM1 (ACRO) and mouse gremlin (R&D) in high pH coating buffer overnight at 4° C. Then the plates were washed once on an automatic plate washer using PBS+0.1% Tween 20 (Sigma). 100 μl of block solution consisting of PBS+1% BSA+1% normal goat serum+0.5% Tween 20 (Sigma) was added to each well and incubated at room temperature for 2 hours. Then 100 μl of antibodies in antibody dilution buffer containing PBS+1% BSA+1% normal goat serum+0.01% Tween 20 starting from 2 μg/ml and then serial dilutions were added to each well of the plate and incubated for 1 hours at room temperature. Afterward the plates were washed three times with 200 μl of PBS+0.1% Tween20 followed by adding 100 μl/well 1:10000 Goat anti mouse IgG-HRP (abcam), and incubate for 1 hour at room temperature. They were then washed 3× with PBS+0.1% Tween20. Finally, 100 µl/well of TMB (Pierce) was added to each well and after several minutes add 50 μl of stop solution to each well. The plates were read on a Multiscan FC microplate reader (Thermo Scientific) at […].

HGREM1-His (ACRO) [3] = target: T1, HGREM1-His (ACRO); assay: competition ELISA on captured human gremlin (Acro,0.5ug/ml), upper panel: hybridoma 14E3 titrated against a fixed amount of chimeric 22F1-C, bound chimeric antibody detected
Procedure: Epitope binning of anti-gremlin hybridoma antibodies were performed using a competition ELISA assay. Clear polystyrene plates (BEAVER) were coated with 100 μl/well of a 0.5 μg/ml hGREM1 (ACRO) in high pH coating buffer overnight at 4° C. Then the plates were washed once on an automatic plate washer using PBS+0.1% Tween 20 (Sigma). 100 μl of block solution consisting of PBS+1% BSA+1% normal goat serum+0.05% Tween 20 (Sigma) was added to each well and incubated at room temperature for 2 hours. Then 50 μl/well of 20 μg/ml saturated antibodies (hybridoma antibodies) in antibody dilution buffer (PBS+1% BSA+1% normal goat serum+0.01% Tween 20) were then added to each well of the plate and incubate for 1 hour. Then add 50 μl/well of 40 ng/ml competitive antibodies (chimeric antibodies, e.g., 14E3-C, 22F1-C, 56C11-C, and 69H5-C) to each well of the plate and incubate for another 1 hour at room temperature. […] The plates were read on a plate reader at 450 nm. The failure of the second antibody to bind in the presence of saturating quantities of the first antibody indicates the two antibodies were in the same epitope bin; the success of the second antibody to bind in the presence of the saturating quantities of the first antibody indicates the two antibodies were in different epitope bins. […]
The amount of chimeric antibody bound to gremlin were determined.

Row | Binder | IC50 (HGREM1-His (ACRO) [1]) | IC50 (HGREM1-His (ACRO) [2]) | binding result (Mouse Gremlin-His (R&D)) | IC50 (read off the curve) (HGREM1-His (ACRO) [3])
1 | 36F5 (antibody, V domains shown, mouse hybridoma antibody; also called hybridoma 36F5) VH: QVQLQQSGAELARPGASVKLSCKASGYSFTSSGIGWVKQRSGQGLEWIGEIYPRSGNTYNNEKFKGKATLTADKSSSTVYMELRSLTSEDSAVYFCVREAYSHHYYAMDYWGQGTSVTVFS VL: DVLMTQTPLSLPVSLGGQASISCRSSQSLLHSNGNTYLEWYLQKPGQSPKLLIYKVSNRFSGVPDRLSGSGSGTDFTLKISRVEAEDLGVYYCFQGSHVPFTFGSGTKLEIN | 0.604 µg/mL | 0.604 µg/mL | – | –
2 | 14E3 (antibody, V domains shown, mouse hybridoma antibody; also called hybridoma 14E3; anti-gremlin1 antibody 14E3) VH: QIQLVQSGPELKKPGETVKISCKTSGSTFTTYGMAWMKQAPGKGLTWMGWINTLSGEPTYADDFKGRFAFSLKTSANTAYLQINNLKNEDAATYFCAREPMDYWGQGTSVIVSS VL: not shown | – | – | no binding | ~1 µg/mL
